The source of these data is EP0977036A1, “METHOD FOR ASSAYING AGALACTO-IgG AND ASSAY KITS, PO[…] LECTINS, AND DNAS ENCODING THE SAME” (SEIKAGAKU CORPORATION, priority 1996, dated 1998).

The target in the experiment is agalacto-IgG (human IgG treated with streptococcal beta-galactosidase and sialidase, Preparation Example 1). Briefly: sandwich ELISA of Example 3, agalacto-IgG 2.5 µg/ml, competitor GlcNAc 50 mM (a monosaccharide). (In general: An ELISA detects its analyte on a solid surface through an enzyme-linked reagent.)

With “Psathyrella velutina lectin (PVL), purified from Psathyrella velutina fruiting body”, the percent inhibition in the presence of 50 mM GlcNAc turned out to be 50%.
